Source: patent publication US12729368B2, “Methods and compositions for generating oligodendrocyte progenitor cells” (Trailhead Biosystems Inc., priority 2022, dated 2026)
Several values for one entry are separate records, joined by “and”; a condition that tells them apart may be missing. Identical values can stand only once.

B1: NT-3: TrkC agonist (protein, UniProt P20783 139-257, looked up)
Neurotrophin-3: YAEHKSHRGEYSVCDSESLWVTDKSSAIDIRGHQVTVLGEIKTGNSPVKQYFYETRCKEARPVKNGCRGIDDKHWNSQCKTSQTYVRALTSENNKLVGWRWIRIDTSCVCALSRKIGRT
B2: Activin A: an activator of one of the receptors of TGF-b superfamily (protein, UniProt P08476 311-426, looked up)
Inhibin beta A chain: GLECDGKVNICCKKQFFVSFKDIGWNDWIIAPSGYHANYCEGECPSHIAGTSGSSLSFHSTVINHYRMRGHSPFANLKSCCVPTKLRPMSMLYYDDGQNIIKKDIQNMIVEECGCS

Experiments:
Format in all cases: cell-based, human
OPCs [1] = assay: HD-DoE 8-factor model for stage 4 on OPCs; conditions: optimized for maximal expression of CNP at 1339; positive
Protocol: (§1) To engineer the recipe of stage 4 of differentiation, 48 or 96 different combinations of effectors generated using Design-of-Experiments compression through D-optimality were robotically prepared. The effector combinations were prepared in a basal media and were subsequently added to the cells, which were treated with the stage 1, stage 2 and stage 3 differentiation media as described in the earlier examples to generate OPCs. […] Solutions within the tested space could then be explored to address desirability.

OPCs [2] = assay: HD-DoE 12-factor model for stage 4 on OPCs, 6 days in culture; conditions: positive
Protocol: as §1, with “desirability. […] Benarroch (2009) Neurology 72:1779-1785; Shi et al. (2019) Exp Ther Med, 18:1258-1266).” for “desirability.”

stage 2 early-OPCs [3] = assay: HD-DoE 8-factor model for stage 3 (version 1) on stage 2 early-OPCs; conditions: optimized for maximum expression of OLIG1 at 256; positive impact
Protocol: To further differentiate the cells to an oligodendrocyte progenitor identity, additional HD-DoE experiments were performed on the cells that were cultured in stage 1 and stage 2 differentiation media. After 3 days, gene expression of cells in different combinatorial conditions were investigated. At this time, we focused on maximal expression of signature oligodendrocyte progenitor genes such as SOX10, OLIG1 and PDGFRa (Goldman and Kuypers (2015) Development 142:3983-95; Marques et al. (2016) Science 352:1326-1329). In one 8-factor model, individual and combinatorial effects of LDN193189, SUN 11602, Activin A, Biotin, TTNPB, Isoproterenol, linoleic acid and T3+T4 were tested.
The same model was also optimized for maximum expression of PDGFRa at 3510.9. Two factor specifically, TTNPB and Linoleic acid determined the expression level of PDGFRa with factor contribution of 71.6 and 22.1, respectively (FIG. 17). […] The model was also optimized for highest expression of SOX10 at 18.8. In this optimization, TTNPB was the only input that could elevate the expression level of the selected gene (FIG. 18).
Dynamic profile analysis was utilized to explore combination sets that can optimize expression of all three selected genes. […]

stage 2 early-OPCs [4] = assay: HD-DoE 12-factor model for stage 3 (version 1) on stage 2 early-OPCs; conditions: positive
Protocol: In another model, the effects of Activin A and TTNPB along with LDN193189, MHY1485, PDGF-AA, AICAR, FGF2, CHIR99021, DBZ, MK2206, Purmorphamine and T3+T4 were tested on gene profile of differentiating cells. When this model was optimized for maximum expression of SOX10 at 54.7, we observed Activin A again had positive regulatory impact on its expression, with factor contribution of 4.7. Other positive factors included MK2206, with the highest factor contribution at 16.2, MHY1485 at 11.49, CHIR99021 at 9.6, DBZ at 9.3, FGF2 at 3.6 and PDGF-AA, with factor contribution less than 3 (FIG. 20).
In this model, we also investigated the conditions of expression of another important OPC gene, CSPG4 (Goldman and Kuypers (2015) Development 142:3983-95: van Tilborg et al. (2018) Glia 66:221-238).
Dynamic profile analysis was used to better assess the impact of the factors on our selected genes and find the combination set that can optimize their expression (FIG. 22). According to this analysis, even though Activin A has a positive effect on SOX10, it decreases level of PDGFRa and OLIG1. […]

Molecule | factor contribution (OPCs [1]) | factor contribution (OPCs [2]; optimized for CNP at 1790) | factor contribution (OPCs [2]; optimized for PLP1 at 3600) | factor contribution (stage 2 early-OPCs [3]) | factor contribution (stage 2 early-OPCs [4]; optimized for maximum expression of CSPG4 at 38.6) | factor contribution (stage 2 early-OPCs [4]; optimized for maximum expression of SOX10 at 54.7)
B1 | 24 | 13 and 13.3 | 7 |  |  | 
B2 |  |  |  | 50.2 | 9.3 | 4.7
